Data on 40 sequences can be found in the nanobody polyreactivity screen of Harvey et al. (2022).

The series is described as follows: yeast display, Sf9 membrane polyspecificity reagent, FACS + sequencing; frameworks hold sequencing errors. In a few lines: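 Sorting gates, low and high (top ~1%), were placed on anti-HA fluorescence to track expression and on streptavidin fluorescence to track reagent binding. A clone's polyreactivity label is taken from the gate it came out of. The reagent was 10% biotinylated, detergent-solubilized Sf9 membrane, applied for 1 hour at 4 °C to galactose-induced yeast display cells.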
For the sequence “QVQLVESGGGLVQAGGSLRLSCAASGRTFRYYDMGWYRQATGKERELVARISISGAGTYYADSVKGRFTISRDNAKNTVYLQINSLKPEDTAVYYCAADLFWWQKTNSGGDYWGQGTQVTVSS”, the “polyreactivity (PSR sort gate)” value is recorded as “low polyreactivity”.

Turning to “QVQLVESGGGLVQAGGSLRLSCAASGRTFRYYGMGWYRQAPGKERELVAAISWSGGSTYYADSVKGRYTISRDNAKNSVYLQMNSLKPEDTAVYYCAADGQYYYGFDYWGQGTQVTVSS”, the “polyreactivity (PSR sort gate)” value is “high polyreactivity”.

With “QVQLVESGGGLVQAGGSLRLSCAASGRTFRYYTMGWYRQAPGKERELVAAITVGSRTNYADSEKGRFTISRDNAKNTVYFQMNSLKAEDTAVYYCARRSYYQYRYDYWGQGTQVTVSS”, the “polyreactivity (PSR sort gate)” value is “high polyreactivity”.

Take “QVQLVESGGGLVQAGGSLRLSCAASGRTFRYYVMGWYRQAPGKERELVARISWSGARTYYADSVKGRFTISRDHAKNTVYLQMNSLKPEDTAVYYCAADNPYYYRRDYWGQGTQVTVSS”: the “polyreactivity (PSR sort gate)” value is listed as “low polyreactivity”.

As to “QVQLVESGGGLVQAGGSLRLSCAASGRTFSAYAMGWSRQAPGKERELVAAISRSGGRTYYADSVKGRFTISRDNAKNTVYLQMNSLKPEDTAVYYCAAGSNIWGQGTQVTVSS”, the “polyreactivity (PSR sort gate)” value is on record as “high polyreactivity”.

Regarding “QVQLVESGGGLVQAGGSLRLSCAASGRTFSAYAMGWYRQAPGKERELVARITSVDSTNYADSVKGRFTISRDNAKNTVYLQMNSLKPDDTAVYYCNATFVFPFVDYDDYWGQGTQVTVSS”, the “polyreactivity (PSR sort gate)” value is reported as “low polyreactivity”.

“QVQLVESGGGLVQAGGSLRLSCAASGRTFSENAMGWYRQARGKERELVAAISGSGGRTYYADSVKGRFTISRDNAKNTVYLQMNSLKPEDTAVYYCAKVTRYGSTYDYWGQGTQVTVSS”: the “polyreactivity (PSR sort gate)” value was “high polyreactivity”.

Take “QVQLVESGGGLVQAGGSLRLSCAASGRTFSEYAMGWYRQAPGKERELVAAITENGGSTYYADSVKGRFTISRDNAKNTVYLQMNSLKPEDTAVYYCAAETWADWYSEFYWGQGTQVTVSS”: the “polyreactivity (PSR sort gate)” value was “high polyreactivity”.

For the sequence “QVQLVESGGGLVQAGGSLRLSCAASGRTFSFYAMGLYRQAPGKERELVAAIRSDGGTTYYADSVKGRFTISRVNGKNTVYLQMNSLKPEDTAVYYCNTQSFYFVSFSSSRYLRYYWGQGTQVTVSS”, the “polyreactivity (PSR sort gate)” value is “low polyreactivity”.

On to “QVQLVESGGGLVQAGGSLRLSCAASGRTFSGNAMGWYRQAPGKERELVATITRRGGSTYYADSVKGRFTISRDNAKNTVYLQMNSLKPEDNAVYYCAARRVVNGGQGYESWGQGTQVTVSS”, for which the “polyreactivity (PSR sort gate)” value is “high polyreactivity”.

For “QVQLVESGGGLVQAGGSLRLSCAASGRTFSGYAMGWYRQAPGKERELVAAISSGGGSTYYADSVKGRFTISRDIAKNTVYLQMNSLKPEDTAVYYCAADGYPGDYDYWGQGTQVTVSS”, the “polyreactivity (PSR sort gate)” value is “low polyreactivity”.

Consider “QVQLVESGGGLVQAGGSLRLSCAASGRTFSGYAMGWYRQAPGKERELVAVITYSGGSTYYADSVKGRFTISRDNAKNTVYLQMNSLKPEDTAVYYCNADYVIFYQLVDYDYWGQGTQVTVSS”, for which the “polyreactivity (PSR sort gate)” value is on record as “low polyreactivity”.

In the case of “QVQLVESGGGLVQAGGSLRLSCAASGRTFSINAMGWYRQAPGKEREMVADITKRGSTYYADSVKGRFTISRDNAKNTVYLQMNSLKREDTAVYYCNARYRGRVYDRFGYWGQGTQVTVSS”, the “polyreactivity (PSR sort gate)” value is given as “high polyreactivity”.

Consider “QVQLVESGGGLVQAGGSLRLSCAASGRTFSIYAMGWYRQAPGKERELVASITGRGGSTYYADSVKGRFTISRDNAKNTVYLQMNSLKPEDTAVYYCAADSYKPDGYRLRNDYWGQGTQVTVSS”, for which the “polyreactivity (PSR sort gate)” value is listed as “high polyreactivity”.

On to “QVQLVESGGGLVQAGGSLRLSCAASGRTFSIYAMGWYRQAPGKERELVASITNSDGSTYYADSVKGRFTISRDNAKNTVYLQMNSLKPEDTAVYYCNVDSGQSWSLWTYVQYDDYWGQGTQVTVSS”, for which the “polyreactivity (PSR sort gate)” value is “low polyreactivity”.

“QVQLVESGGGLVQAGGSLRLSCAASGRTFSKNTMGWYRKAPGKERELVASITRRGGSTYYADSVKGRFTISRDNAKNTVYLQMKSLKPEDTAVYYCAVRWRDYRGSYRGFEYWGQGTQVTVSS”: the “polyreactivity (PSR sort gate)” value is recorded as “high polyreactivity”.

Consider “QVQLVESGGGLVQAGGSLRLSCAASGRTFSKYAMGWYRQAPGKERELVASITWSGGTTNYADSVKGRFTISRDNAKNTVYLQMNSLKPEDTAVYYCNADGYLAERFFIRLDEYRDYDYWGQGTQVTVSS”, for which the “polyreactivity (PSR sort gate)” value is reported as “low polyreactivity”.

In the case of “QVQLVESGGGLVQAGGSLRLSCAASGRTFSKYTMGRYRQAHGKEMEFGAAISYSGGSTYYADSVKGRFTISRDYAKKTVYLQMNSLKPEDTAVYYCAARASTYKYYYWGQGTQVTVSS”, the “polyreactivity (PSR sort gate)” value is given as “high polyreactivity”.

For the sequence “QVQLVESGGGLVQAGGSLRLSCAASGRTFSNYAMGWYRQAPGKERELVAAISQRGGSTYYADSVKGRFTISRDNAKITVYLQMNSLKPEDTAVYYCNALFRLRAYADMDYWGQGTQVTVSS”, the “polyreactivity (PSR sort gate)” value is “high polyreactivity”.

Take “QVQLVESGGGLVQAGGSLRLSCAASGRTFSPNSMVWYRPAPGKERELVAAITRSDGRTYYADSVKGRFTISRDNAKNTVYLQMNSLKPEDTAVYYCAVDGYYPPAWYEYDYWGQGTQVTVSS”: the “polyreactivity (PSR sort gate)” value is reported as “high polyreactivity”.

As to “QVQLVESGGGLVQAGGSLRLSCAASGRTFSRNAMGRYRQAPGKERELVATITSDGSTNYADSVKGRFTISRDNAKNTVYLQMNSLKPEDTAVYYCAAGEQSSIIGAHDYWGQGTQVTVSS”, the “polyreactivity (PSR sort gate)” value was “low polyreactivity”.

“QVQLVESGGGLVQAGGSLRLSCAASGRTFSRNAMGWYRQAPGKERELVATISSSGVRTYYADSVKGRFTISRDNAKNTVYVQMNSLKPEDTGVYYCAAALRYFSAASGYDYWGQGTQVTVTS”: the “polyreactivity (PSR sort gate)” value is recorded as “low polyreactivity”.

For “QVQLVESGGGLVQAGGSLRLSCAASGRTFSRYAMGWYRQAPGKERELVAAITSGGSTYYADSVKGRFTISRDNAKNTVYLQMNSLKPEDTAVYYCAAVWRYGYSDGGYWGLGTQVTVSS”, the “polyreactivity (PSR sort gate)” value was “high polyreactivity”.

Consider “QVQLVESGGGLVQAGGSLRLSCAASGRTFSRYAMGWYRQAPGKERELVATINSRAGITNYADSVKGRFTISRDNAKNTVYLQMNSLKPEDTAVYYCAAKGVIISYDTLRYDYWGQATQVTVSS”, for which the “polyreactivity (PSR sort gate)” value is recorded as “high polyreactivity”.

With “QVQLVESGGGLVQAGGSLRLSCAASGRTFSSNAMGWYRQAPGKERELVASISFRGGRTYYADSVKGRFTISRDNAKNTVYLQMNSLKPEDTAVYYCVSGTKRTGYGYWGQGTQVTVSS”, the “polyreactivity (PSR sort gate)” value is listed as “high polyreactivity”.

Regarding “QVQLVESGGGLVQAGGSLRLSCAASGRTFSSNAMGWYRQAPGKERELVATITYSGGSTYYADSVKGRFTISRDNAKNTVYLQMNSLKPEDTAVYYCAVRVSTYITKYYYWGQGTQVTVSS”, the “polyreactivity (PSR sort gate)” value was “low polyreactivity”.

For “QVQLVESGGGLVQAGGSLRLSCAASGRTFSSNAMGWYRQAPGKERELVAVITRRGGSTYYADSVKGRFTISRDNAKNTVYLQMNSLKPEDTAVYYCATDAPPQRSGRRSAGQKYYYLGQGTQVTVSS”, the “polyreactivity (PSR sort gate)” value is “high polyreactivity”.

As to “QVQLVESGGGLVQAGGSLRLSCAASGRTFSSNTMGWYRQAPGKERELVAAITKSGANTYYADSVKGRFTISRDNAKNTVYLQMNSLKPEDTAVYYCAAPGKVQRYYYWGQGTQVTVSS”, the “polyreactivity (PSR sort gate)” value was “high polyreactivity”.

In the case of “QVQLVESGGGLVQAGGSLRLSCAASGRTFSSTAMGWYRPAPGKERELVATITYSGGSTYYADSVKGRFTISRDNAKNTVYLQMISLKPEDCAVYYGAVRVSTYMTKYYYWGQGTQVTVSS”, the “polyreactivity (PSR sort gate)” value is on record as “low polyreactivity”.

Consider “QVQLVESGGGLVQAGGSLRLSCAASGRTFSSYTMGWYIQAPGKEMELVAAISWRGGSTYYADSVKGRFTISSDNAKNTVYLQMNSLKPEDTAVYYCAARSYLTPDYYYWGQGTQVNVSS”, for which the “polyreactivity (PSR sort gate)” value was “high polyreactivity”.

With “QVQLVESGGGLVQAGGSLRLSCAASGRTFSSYVMGWYRQAPGKERELVASISRRGGSTYYADSVKGRFTISRDNAKNTVYLQMNSLKPEDTAVYYCNADLRGFGRGTDQYIFDYWGQGTQVTVSS”, the “polyreactivity (PSR sort gate)” value is given as “high polyreactivity”.

Regarding “QVQLVESGGGLVQAGGSLRLSCAASGRTFSTYAMGWYRQAPGKERELVAAITSSGTSTYYADSVKGRFTISRDNAKNTVYLQMNSLKPEDTAVYYCAAVTKRYLAYDYWGQGTQVTVSS”, the “polyreactivity (PSR sort gate)” value was “high polyreactivity”.

For the sequence “QVQLVESGGGLVQAGGSLRLSCAASGRTFSTYAMGWYRQAPGKERELVAAKSSGGGRTYYADSVKGRFTISRDNAKNTVYLQMNSLKPEDTAVYYCAADRYFRSRRSYEYWGQGTQVTVSS”, the “polyreactivity (PSR sort gate)” value is on record as “low polyreactivity”.

Turning to “QVQLVESGGGLVQAGGSLRLSCAASGRTFSVNAMGWYRQAPGKERELVAAISWDGGSTYYADSVKGRFTISRDNAKNTVYLQMNSLKPEDTAVYYCIKDLYYAYDYWGQGTQVNVSS”, the “polyreactivity (PSR sort gate)” value is reported as “low polyreactivity”.

Turning to “QVQLVESGGGLVQAGGSLRLSCAASGRTFSVNAMGWYRQAPGKERELVAAITSGASTNYADSVKGRFTMSRDNAKNTVYLQMNSLKPEDTAVYYCAADATYGHVPAEYDYWGQGTQVTVSS”, the “polyreactivity (PSR sort gate)” value is “low polyreactivity”.

Consider “QVQLVESGGGLVQAGGSLRLSCAASGRTFSVYAMGWYRQAPGKEREFVATISYSGVRTSYADSVKGRFTISRDNAKNTGYLQMNSLKPEDTAVYYCNARTYYPVYYRDGGYWGQGTQVTVSS”, for which the “polyreactivity (PSR sort gate)” value is “high polyreactivity”.

Take “QVQLVESGGGLVQAGGSLRLSCAASGRTFSVYAMGWYRQAPGKERELVAVISYRDGTTYYADSVKGRFTISRDNAKNTVYLQMNSLKPEDTAVYYCAADFFSDFDWGQGTQVTVSS”: the “polyreactivity (PSR sort gate)” value is “low polyreactivity”.

In the case of “QVQLVESGGGLVQAGGSLRLSCAASGRTFSVYAMGWYRQATGKEREFVAAISFSGGRTYYADSVKGRFTISRDNAKNTVYLQINSLKPEDTAVYYCAKRGSYYNPMGYWGQGTQVTVSS”, the “polyreactivity (PSR sort gate)” value is on record as “high polyreactivity”.

“QVQLVESGGGLVQAGGSLRLSCAASGRTFSVYTMGWYRQAPGKERELVAAISSTGRTNYADSVKGRFTISRDNAKNTVYLQMNSLKPEDTAVYYCNAGVRNSYTRQALVTAYYLYYYWGQGTQVTVSS”: the “polyreactivity (PSR sort gate)” value is given as “high polyreactivity”.

As for “QVQLVESGGGLVQAGGSLRLSCAASGRTFSYNAMGWYRPAPGKERELVAVITYSGGSTYYADSVKGRFTISRDNAKNTVYLQMNSLKPEDTAVYYCNADGYRPYQNGYDYWGQGTQVTVSS”, the “polyreactivity (PSR sort gate)” value was “high polyreactivity”.
